Values belong to the molecule of their own block, whether it stands above or below them.
How the values were obtained:
[1] = molecular target: Purified human PD1 extracellular domain produced in E. coli fused to Fc (Ray Biotech) (human) (UniProt Q15116); test: blocking ELISA; E. coli hPD1 ECD-Fc coated, antibody at 20 ug/ml, competitor ligand biotinylated deglycosylated mPD-1 Fc
[2] = molecular target: T1, hPD-1 peptide No. 12 (TDKLAAFPED) (human); test: ELISA on hPD-1 peptide array
T1 construct: also called PD1 peptide 12; peptide 12
T1 peptide: TDKLAAFPED

Chain of Purified human PD1 extracellular domain produced in E. coli fused to Fc (Ray Biotech) (human) (Q15116 25-170): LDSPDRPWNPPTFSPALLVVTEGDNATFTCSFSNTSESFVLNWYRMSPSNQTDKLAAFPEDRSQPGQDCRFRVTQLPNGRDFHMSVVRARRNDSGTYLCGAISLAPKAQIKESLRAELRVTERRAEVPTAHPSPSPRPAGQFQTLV

binding remaining, % of unblocked controls (% of unblocked controls) [1]: 86
Molecule: mab12 (LS-C131333, LS Bio) (antibody)

binding result [2]: binds
B1: IMT200 (antibody, V domains shown)
VH: QVQLQQSGPELVKPGASVKISCKASGFAFSGSWMNWMKQRPGKGLEWIGRIYPGDGDTNYNGKSKGKATLTADTSSSTAYMQLSSLTSEDSAVYFCTRSTTILADYWGQGTTLTVSS
VL: DIQMTQTTSSLSASLGDRVTISCRASQDIANYLNWYQQKPDGTVKLLIYYTSRKYSGVPSRFSGSGSGTDYSLTISNLDQEDIATYFCQQGKTLPWTFGGGTKLEIK
notes: Monoclonal raised against non-glycosylated His-tagged hPD-1 and detected with anti-mouse IgG-HRP; also called monoclonal antibody IMT200; anti-PD-1 mAb IMT200

— patent US20210363255A1 (TRUEBINDING, published 2021)
